The results in this text go back to the supplement of paper PMC9170038.

The test system of this data set is MS2 coat protein. In words: apparent KD of MS2 coat protein; designed switch direction (-1 OFF switch, 1 ON switch): -1; higher = weaker reporter binding. A digest of the protocol: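 Designed RNA switches with common flanks were transcribed on Illumina chips by stalled E. coli RNA polymerase and titrated with SNAP-549-labelled MS2 coat protein, from 0.7 or 1.5 nM doubling to 3 µM, in Tris-HCl pH 7.5 buffer with KCl, MgCl2, BSA, DTT, tRNA and Tween-20. Steps lasted 0.8–1.5 h (lowest) to 10–20 min (highest). Titrations ran without input, with 200 uM small-molecule ligand, or with an oligonucleotide input. Normalised cluster fluorescence was curve-fitted, and apparent KD is the per-design median over clusters.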

[1] abbreviates: Eterna round: R95, input ligand: FMN 200 uM.
Where [2] appears, read: Eterna round: R95, input ligand: microRNA oligo, concentration not stated.
Setting [3] is: Eterna round: R95, input ligand: none.
The mark [4] stands for this setting: input ligand: microRNA oligo, concentration not stated.

As for “AAUAACAAGCCGAUCCUCUACAUGAGGAUCACCCAUGUGUUCGUCUUGUAAAGUACUAUCACGAAAGUGAUAGUACA (Eterna round: R97, puzzle: Sensor, turn-off variant 1)”, the “apparent KD of MS2 coat protein” value reads like this: (input ligand: FMN 200 uM) 209 nM; (input ligand: none) 244 nM.

As for “AAUAACAAGUUGAUCCUACACAUGAGGAUCACCCAUGUGCUCGUCUUGUCAAGUACUAUCACGAAAGUGUUAGUUCA [Mod-Hyphema] (Eterna round: R97, puzzle: Sensor, turn-off variant 1)”, the “apparent KD of MS2 coat protein” value reads like this: (input ligand: FMN 200 uM) 74.7 nM; (input ligand: none) 263 nM.

Turning to “AAUAACAGAGGAUAUACUAUAAUAUGAAUAAAAUAAAUAAAACAUGAGGAUCACCCAUGUAGAAGGCUGAAUAA [JMF's Not so obvious solution 10] (puzzle: Exclusion 2)”, the “apparent KD of MS2 coat protein” value was 17.1 nM under setting [1], 20 nM under setting [2] and 21.1 nM under setting [3].

As for “AAUAACAGAGGAUAUACUAUUUUAUGUAUUUAUUAUUUUAAACAUGAGGAUCACCCAUGUAGAAGGCUGAGUAA [JMF 27] (puzzle: Exclusion 2)”, under setting [2], the “apparent KD of MS2 coat protein” value is 22.2 nM.

As to “AAUAACAGAGGAUAUACUAUUUUAUGUGUUUAUUGUUUUAAACAUGAGGAUCACCCAUGUAGAAGGCUGAUUAA [JMF 45] (puzzle: Exclusion 2)”, the “apparent KD of MS2 coat protein” value under setting [2] worked out at 61.9 nM.

Turning to “AAUAACAGAGGAUAUACUAUUUUAUGUGUUUAUUGUUUUAAACAUGAGGAUCACCCAUGUAGAAGGCUGAUUGA [JMF 73] (puzzle: Exclusion 2)”, under setting [2], the “apparent KD of MS2 coat protein” value was found to be 65.5 nM.

“AAUAACAGAGGAUAUACUAUUUUAUGUGUUUAUUGUUUUGAACAUGAGGAUCACCCAUGUAGAAGGCUGAUUAA [JMF 51] (puzzle: Exclusion 2)”: the “apparent KD of MS2 coat protein” value under setting [2] turned out to be 35.3 nM.

In the case of “AAUAACAGAGGAUAUACUGUUUUAUGUGUUUGUUAUUUUGAACAUGAGGAUCACCCAUGUAGAAGGCUGAUUAA [JMF 50] (puzzle: Exclusion 2)”, the “apparent KD of MS2 coat protein” value under setting [2] was determined as 37.4 nM.

On to “AAUAACAGAGGAUAUACUGUUUUAUGUGUUUGUUGUUUUGAACAUGAGGAUCACCCAUGUAGAAGGCUGAUUGA [JMF 79] (puzzle: Exclusion 2)”, for which the “apparent KD of MS2 coat protein” value under setting [2] is 38.7 nM.

With “AAUAAUACAGGAUAUACAGUUUAUUACAUGAGGAUCACCCAUGUUCUUCAAUGUAUAUAAGUAGAAGGGUAAGGAA [EX-5 Malc#1] (puzzle: Exclusion 5)”, the “apparent KD of MS2 coat protein” value was 50.9 nM under setting [1], 25.1 nM under setting [2] and 24.3 nM under setting [3].

As for “AAUAAUAGCGAGGAUAUCGUAUCGGAAACGAUACGAGAAGGCGUAACAUGAGGAUCACCCAUGUUCCUCAAUAA [Fiskers Ex 6 - 3] (Eterna round: R96, puzzle: Exclusion 6)”, the “apparent KD of MS2 coat protein” value (input ligand: FMN 200 uM) was 354 nM, the “apparent KD of MS2 coat protein” value under setting [4] is 39.8 nM and the “apparent KD of MS2 coat protein” value (input ligand: none) came out at 41 nM.

Consider “AAUAAUAGCGAGGAUAUCGUAUCGGAAACGAUACGAGAAGGCGUAACAUGAGGAUCACCCAUGUUCCUCAAUAA [Fiskers Ex 6 - 3] (puzzle: Exclusion 6)”, for which the “apparent KD of MS2 coat protein” value under setting [2] was determined as 39.7 nM.

“AAUAAUCGGGCCUUCCUAAUACAUGAGGAUCACCCAUGUCUCGAGGAUAUACCAACGCACGGUCCGUAGAAGGCGAGACCACAC [Vesoonso] (Eterna round: R96, puzzle: Exclusion NG 3)”: the “apparent KD of MS2 coat protein” value (input ligand: FMN 200 uM) came to 24.2 nM, the “apparent KD of MS2 coat protein” value under setting [4] was found to be 13.2 nM and the “apparent KD of MS2 coat protein” value (input ligand: none) is 21.9 nM.

As to “AAUACAAGCUAUUGAUCCCACAUGAGGAUCACCCAUGUGCCUGGCCGUGAGACCAGGUUUACAAUAGCUCGUCUUAU [Sensor-V1 #47] (Eterna round: R97, puzzle: Sensor, turn-off variant 1)”, the “apparent KD of MS2 coat protein” value runs as follows: (input ligand: FMN 200 uM) 23.5 nM; (input ligand: none) 23.5 nM.

For the sequence “AAUACACAUGAGGAUCACCCAUGUUAGGAUAUUCGCGGGAAAGCUGUCAAAACGCCGAGGAGAAGGAACAGGAA [Excls1-X] (puzzle: Exclusion 1)”, the “apparent KD of MS2 coat protein” value runs as follows: under setting [1], 40 nM; under setting [2], 33.7 nM; under setting [3], 45.7 nM.
